Test: yeast display, Sf9 membrane polyspecificity reagent, FACS + sequencing; frameworks hold sequencing errors
Method in brief: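 Using colony PCR, genes from sorted yeast display clones were amplified, then sequenced on MiSeq at 2 × 250 and filtered by CDR length. The clones had been stained with 10% biotinylated, detergent-solubilized Sf9 membrane reagent for 1 hour at 4 °C and sorted by FACS into low and high (top ~1%) gates on anti-HA and streptavidin fluorescence. Polyreactivity labels come from the gate of origin.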

Sequence: QVQLVESGGGLFQAGGSLRISCAASGITFYGNAMGWYRQAPGKERELDATISSGGGTNYADSVKGRFTISRDNAKNTVYLQMNSLKPEDTAVYYCATDLSTVDYNYWGQGTQVTVSS
- polyreactivity (PSR sort gate): low polyreactivity

Sequence: QVQLVESGGGLFQAGGSLRISCAATGSTFGSYAMGWYRQAPGKERELVAAISVGGGSTYYADSVKGRFTISRDNAKNTVYLKMNSLKPEDTAVFYCAATAPRWHHFYHWGQGTQVTVSS
- polyreactivity (PSR sort gate): high polyreactivity

Sequence: QVQLVESGGGLFQAGGSLRLICAASGRIFDVNAMGWYRQAPRKEREMVAAISWSGGITYYADSVKGRFTISRDNAKNTVYLQMNSLKPEDTAVYYCAADKYQGYTFYQGYPGGGGYWGQGTQVTVSS
- polyreactivity (PSR sort gate): low polyreactivity

Sequence: QVQLVESGGGLFQAGGSLRLSCAASASIIPHNAMGWYRQAPGKERELVASITSRGGITYYADSVKGRFTISRDNAKNTVYLQMNSLKPEDTAVYYCAKDHAYTSAPHQYASEYYYWGQGTQVTVSS
- polyreactivity (PSR sort gate): low polyreactivity

Sequence: QVQLVESGGGLFQAGGSLRLSCAASGFIFARNAMSWYRQAPGKERELVAAISRNGGRTSYADSVKGRFTISRDNAKNTVYLQMNSMKAEDTAVYYCAKSQGYVSWTGAYSYDYWGQGTQVTVSS
- polyreactivity (PSR sort gate): high polyreactivity

Sequence: QVQLVESGGGLFQAGGSLRLSCAASGFIFLLNAMGWYRQAPGKERELVAAINSDGSTNYADSVKGRFTISRDNAKNTFYLQMNSLKPEDTGVYYCAARSFTLRGYDYWGQGTQVTVSS
- polyreactivity (PSR sort gate): low polyreactivity

Sequence: QVQLVESGGGLFQAGGSLRLSCAASGFNFDSNVMGWYRQAPGKERELVAAITGDDTTYYADSVKGRFTISRDNAKNTVYLQMNSLKPEDTAVYYCAADETESLEYTAYDMYYWGQGTQVTVSS
- polyreactivity (PSR sort gate): low polyreactivity

Sequence: QVQLVESGGGLFQAGGSLRLSCAASGFSFYGNTMGWYRQAPGKERELFASITSGSSTHYADSVKGRFTISRDNAKNTVYLQMNSLKPDDTAVYYCNVEDIQFGKYDYWGQGTQVTVSS
- polyreactivity (PSR sort gate): low polyreactivity

Sequence: QVQLVESGGGLFQAGGSLRLSCAASGFTFAFNAMGWYRQAPGKERELVAGITSGGRTNYADSVKGRFTISRDNGKNTVYLQMNSLKPEDTAVYYCAADRPYYKGYVPPYYKYRYDYWGQGTQVTVSS
- polyreactivity (PSR sort gate): high polyreactivity

Sequence: QVQLVESGGGLFQAGGSLRLSCAASGFTFARYAMGRSRTAPAKERELVARISWSGGSTYYADSVKGRFTISRDNAKNTVYLLMYSLKTEDTEVYYCAADGWYYRYPRDDYWGQGTQETVSS
- polyreactivity (PSR sort gate): low polyreactivity

Sequence: QVQLVESGGGLFQAGGSLRLSCAASGFTFGHNSMGWYRQAPGKERELVAAISYSGGSTYYADSVKGRFTSSRDNAKNTVYLQMNSLKPEDTAVYYCAKRSHTDSVPGVYNEGDFWGQGTQVTVSS
- polyreactivity (PSR sort gate): low polyreactivity

Sequence: QVQLVESGGGLFQAGGSLRLSCAASGFTFHRNAMGWYRQAPGKERELVAAITLNGGSSTYYADSVKGRFTISRDNAKNTVYLQMNSLKAEDTAVYSCALDSYSYTFSKNSDPAEYEYWGQGTQVTVSS
- polyreactivity (PSR sort gate): low polyreactivity

Sequence: QVQLVESGGGLFQAGGSLRLSCAASGFTFIPYTMGWYRQAPGKERELVASIISGGSTNYADSVKGRFTISRDNAKNTVYFQMKSLKPEDTAVYYCAAVYFYYCYGWYYYWGQGTQVTVSS
- polyreactivity (PSR sort gate): high polyreactivity

Sequence: QVQLVESGGGLFQAGGSLRLSCAASGFTFNRNAMGWYRQAPGKERELVAAISWSGGSTYYADSVKGRFTISRDNAKNPVYLQMNSLKPEDTAVYYCAKGYRRVYGPFYYWGQGTQVTVSS
- polyreactivity (PSR sort gate): low polyreactivity

Sequence: QVQLVESGGGLFQAGGSLRLSCAASGFTFPDYAMGSYRQAPGKERELVAAISSDGSTYDADSVKGRFTISRDIAKTTVYLQMNSLKPEDTAVYYCAAYVVWLYGYAYWGQGTQVTVSS
- polyreactivity (PSR sort gate): low polyreactivity

Sequence: QVQLVESGGGLFQAGGSLRLSCAASGFTFWYYAMGWYRQAPGKERELVAAISASGGSTYYADSVKVRFTISRDNAKNTVYLQMNCLKPEDTAVYYCAARYPSKFYNTYDRDYWGQGTQVTVSS
- polyreactivity (PSR sort gate): high polyreactivity

Sequence: QVQLVESGGGLFQAGGSLRLSCAASGFTFYRNAMGWYRQAPGQERELVAAITRGGSTTYADSVKGRFTISRDNAKNTVYLQMNSLKPEDTAVYYCAKGARADVPGYYKYYYWGQGTQVTVSS
- polyreactivity (PSR sort gate): high polyreactivity

Sequence: QVQLVESGGGLFQAGGSLRLSCAASGGIFSLYAMGWYRQAPGTERELVAVISSTCSTHYADSVKGRFTISRDNAKKTVSLLMNSLKPEDTAVYYCNADARTSRKKFGYWGQGTQVTVSS
- polyreactivity (PSR sort gate): low polyreactivity

Sequence: QVQLVESGGGLFQAGGSLRLSCAASGGTFDWYTMGWYRQAPGKERELVADITSGGSTYYADSVKGRFTISRDNAKNTVYLQMNSLKPEDTALYYCNKRDKVTYSYDYWGQGTQVTVSS
- polyreactivity (PSR sort gate): high polyreactivity

Sequence: QVQLVESGGGLFQAGGSLRLSCAASGIIFSSNAMGWSRQAPGKERELVAAISSSGSRTYYAASVKGRFTISRDNAKNTVYFQMNSLKPEDTAVYYCAARTISSLNHHGYWGQGTQVTVSS
- polyreactivity (PSR sort gate): high polyreactivity

Sequence: QVQLVESGGGLFQAGGSLRLSCAASGINFYKYSMGWYRQAHRKERELVAAITSGGGRTYYADSVKGRFTISRDNAKNTVYLQMNSLKPEDTAVYYCAATRPASYAAYDYWGQGTQVTVSS
- polyreactivity (PSR sort gate): high polyreactivity

Sequence: QVQLVESGGGLFQAGGSLRLSCAASGLIFGRYAMGWYRPAPGKERELVAAISRSGGSTHYADSVKGRFTISRDNAKNTVYLQMNSLKPEDTAVYYCAAVWPFDRSRMDYWGQGTQVTVSS
- polyreactivity (PSR sort gate): high polyreactivity

Sequence: QVQLVESGGGLFQAGGSLRLSCAASGLTFQRYDMGWYRQAPVKEIELVAAINYSGGRTYYADSVKGRFTISRDNAKNTVYLQMNSLKPEDTAVYYCAARVRNTYVYQSWDGMYYWGQGTQVTVSS
- polyreactivity (PSR sort gate): high polyreactivity

Sequence: QVQLVESGGGLFQAGGSLRLSCAASGLTLYFYVMGWYRQAPGKERELVAAISSTGSTYYADSVKGRFTISRDNAKNTVYLQMNSLKPEDTAVYYCAARYGGHYGAEYYWGQGSQVTVSS
- polyreactivity (PSR sort gate): high polyreactivity

Sequence: QVQLVESGGGLFQAGGSLRLSCAASGRIFGAYTMGWYRQAPGKERELVAAISDGGDTYYADSVKGRFTISRDNAKNTVYLQMNSLKPEDTAVYYCAADAPYYAYYWYPSSLGIYGYWGQGTQVTVSS
- polyreactivity (PSR sort gate): low polyreactivity

Sequence: QVQLVESGGGLFQAGGSLRLSCAASGRIFGPYAMGWYRQAPGKERELVATITLRGGSTYYADSVKGRFTISRDNAKNTVYLQMNSLKPEDTAVYYCNARYYSLVYRYDYWGQGTQVTVSS
- polyreactivity (PSR sort gate): high polyreactivity

Sequence: QVQLVESGGGLFQAGGSLRLSCAASGRIFQHNTMGWYRQAPGKEREFVAAIRRSGGSTYYADSVKGRFTISRDNAKNTVYLQMNSLKPEDTAVFYCAARDYPTGTRRWGGGDSWGQGTQVTVSS
- polyreactivity (PSR sort gate): low polyreactivity

Sequence: QVQLVESGGGLFQAGGSLRLSCAASGRIFSCYAMGWYRQAPGKERELVAAITVRGSTYYADSVKGSFTISRDNAKNTVYLQMNSLKPEDTAVYYCAAGGYPGTTYYGYDFWGQVTQVTVSS
- polyreactivity (PSR sort gate): low polyreactivity

Sequence: QVQLVESGGGLFQAGGSLRLSCAASGRIFYTNVMGWYRPAPGKERELVAAISTGGGRTYYADSVKGRFTISRDYAKNTVYLQMNSLKPEDTAVYYCAADWRTKGYDSLGQGTQVTVSS
- polyreactivity (PSR sort gate): high polyreactivity

Sequence: QVQLVESGGGLFQAGGSLRLSCAASGRTFHGYAMGWYRQAPGKERELVARINWSDGRTYYADSVKGRFTISRDNAKNTVYLQMNSLKPEDTAVYYCAADKTVSYAPAWYYYWGQGTQVTVSS
- polyreactivity (PSR sort gate): low polyreactivity

Sequence: QVQLVESGGGLFQAGGSLRLSCAASGRTFKPNTMGWYRQAPGKERELVAAITWRGGSTYYADSVKGRFTISRDNAKNTVYLQMNSLKPEDTAVYYCASARVRTGTGMDYWGQVTQVTVSS
- polyreactivity (PSR sort gate): low polyreactivity

Sequence: QVQLVESGGGLFQAGGSLRLSCAASGSIFDVNAMGWYRQAPGKEREFVAAISDSGGSTYYADSVKGRFTMSRDNAKNTVSLPMNSLKPEDTAVYYCNADWSWYNYYDFDYWGQGTQVTVSS
- polyreactivity (PSR sort gate): low polyreactivity

Sequence: QVQLVESGGGLFQAGGSLRLSCAASGSIFWGYDMGWYRQPPGKERELGARISYSGGSTSYADSVKGRFTISRDNAKNTVYLQMNSLKPEDTAVYYCAADEGGFWWTYPYDCWGQGTQVSVSS
- polyreactivity (PSR sort gate): low polyreactivity

Sequence: QVQLVESGGGLFQAGGSLRLSCAASGSTFPYNAMGGYRQAPGKERELVAAINSGATTYYADSVKGRFTISRDNAKNTVYLQMNSLKPEDTAVYYCAAEGYASSSEYDYWGQGTQVTVSS
- polyreactivity (PSR sort gate): low polyreactivity

Sequence: QVQLVESGGGLFQAGGSLRLSCAASGSTSIYNAMGWYRQAPGKERELVAAIDVRGGGTYADSVKGRFTISRDNAKNTVYLQMNSMKPEDTAVYYCNADYARYPNGWFRIVGSGYWGQGTQVTVSS
- polyreactivity (PSR sort gate): low polyreactivity

Sequence: QVQLVESGGGLFQAGGSLRLSCAASRLIFPLYAMGWYRKAPWKERELVAANTRGGSTYYADSVKGRLTISSDNANNTVYLQINSLKAEDTAVYDCNDELPVHWSWYDYWGQGTQVTVSS
- polyreactivity (PSR sort gate): low polyreactivity

Sequence: QVQLVESGGGLFQAGGSLRLSCAATGITFFRYPMGWYRQAPGKERELVAVITRGGTTYYADSVKGRFTISRDNAKNNAYLQINSLKPEDTAVSYCAAKPYYGYDYWGQGTQVTVSW
- polyreactivity (PSR sort gate): high polyreactivity

Sequence: QVQLVESGGGLFQAGGSLRLSCAPSGFIFPKNPMSWYRHAPGKERELVAAISQSGGSTYYADSVKGRFTISRDNAKNTVYLQMKSLKADDTAVYSCAARYYLPNWVGGGEYNYWGQGTQVTVST
- polyreactivity (PSR sort gate): high polyreactivity

Sequence: QVQLVESGGGLFQAGGSLRLSCAPSGSIIIRNAMGWYRQAPGKEREWVAVISSSVGRTYYADSVKGRFTISRDTAKNTVYVQMNSLKPEVTAVYYCAARWYSGYGRFDYWGQVTQVTVSS
- polyreactivity (PSR sort gate): high polyreactivity

Sequence: QVQLVESGGGLFQAGGSLRLSCASSGSIFLIYAMGWYRQAPGKERELVAAITQRGGSTYYADSVKGRFTISRDNAKISVYLQMESLKPEDTAVYYCNARRYVMRYNRFYYWGQGTQVTVSS
- polyreactivity (PSR sort gate): high polyreactivity

Sequence: QVQLVESGGGLFQAGGSLRLSCSASGSIFKRYAMVWYRQAPGKERELVARITNRSGNTYYADSVKGRFTISRDNAKNTVYLQMISLKPEDSAVYYRAATKSLGRYYMYYWGQGTQVTVSS
- polyreactivity (PSR sort gate): low polyreactivity

Sequence: QVQLVESGGGLFQAGVSLRISCAASGFIFDRNAMGWYRQAPGKERELVAVINSGGSTYYADSVKGRFTISRDNAKNTVYLQMNCLKPEDTAVYYCAAVRSRYGREYYYWGQGTQVTVSS
- polyreactivity (PSR sort gate): high polyreactivity

Sequence: QVQLVESGGGLFQEGGSLRISCAPSGSTFGGYVMGWYRQAPGKDRELVAAIRRVGRTYYADSVKGRFTISRDNAKNTVYLQINSLKAEVTAVYYFAADWAGWEGYRMDYWGQGTQVTVSS
- polyreactivity (PSR sort gate): low polyreactivity
